Patent US20260167739A1 (PHANES THERAPEUTICS, published 2026)

T1: human 5T4 (32-355) tagged with poly-his at the C-terminus (ACROBiosystems, CAT #TPG-H52E5) (human, UniProt Q13641 32-355)
T1 construct: range 32-355; Bought protein; also called recombinant human 5T4; recombinant 5T4 Ser32-Ser355; not shown: C-terminal poly-his tag
T1 sequence (looked up): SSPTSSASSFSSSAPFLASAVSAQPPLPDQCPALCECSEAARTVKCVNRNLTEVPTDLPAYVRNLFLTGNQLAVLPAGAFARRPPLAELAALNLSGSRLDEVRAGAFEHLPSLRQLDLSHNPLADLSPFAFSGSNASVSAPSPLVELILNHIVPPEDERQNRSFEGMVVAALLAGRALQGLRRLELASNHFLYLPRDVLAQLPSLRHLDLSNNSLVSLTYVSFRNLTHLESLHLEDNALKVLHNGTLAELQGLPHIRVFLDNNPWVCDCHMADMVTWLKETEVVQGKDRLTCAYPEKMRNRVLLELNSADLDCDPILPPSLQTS


target: T1, human 5T4 (32-355) tagged with poly-his …; test: ELISA, 5T4-His coated on the plate
Excerpt: FIGS. 1A-IC show the binding of purified chimeric anti-5T4 mAbs (VH and VL regions of mouse mAb fused to the constant regions of human IgG1 heavy chain and kappa light chain, respectively) to immobilized recombinant 5T4 in an ELISA assay. The antigen was human 5T4 (32-355) tagged with poly-his at the C-terminus (ACROBiosystems, CAT #TPG-H52E5). L3F10-C, the chimeric version of L3F10; the same naming rule is used for the rest of the antibodies. Isotype Control (IgG1), a negative control antibody.
Purified chimeric mAbs were tested in an ELISA assay for their ability to bind to immobilized 5T4. Recombinant human 5T4 (ACROBiosystems, CAT #TPG-H52E5) in PBS was coated onto a 96-well plate (Corning, CAT #3361) at 4° C. overnight. The next day, plates were blocked using 5% BSA in TBST for 1 hour at room temperature and washed using TBST. Antibody samples at various concentrations in 5% BSA in TBST were added to the wells and incubated for 1 hour at room temperature. Plates were washed with TBST and bound antibody was labeled using mouse anti-human IgG Fc HRP (Thermo, CAT #H10007) for 1 hour at room temperature. Plates were washed again using TBST, and then ELISAs were developed using 1 Step Ultra TMB detection reagent (Thermo, CAT #34028) for 4 minutes before being quenched with ELISA stop solution (Thermo. CAT #SS04). Plates were quantified by measuring absorbance at 450 nm by plate reader.

Binder | binding result
L2B11-C (antibody, V domains shown, Mouse VH and VL fused to human IgG1 heavy and kappa light constant regions; also called chimeric version of L2B11) VH: EVKLVESEGGLVQPGSSMKLSCTASGFTFSDYYMAWVRQVPEKGLEWVGNINYDGSRTYYLDSLKSRFIISRDNGKNILYLQMSSLKSEDTATYYCAREGDNYGNSHYAMDYWGQGTSVTVSS VL: DVLMTQTPLSLPVSLGDQASISCRSSQSFVHSNGNTYLEWYLQKPGQSPKLLIYKVSNRFSGVPDRFTGSGSGTDFTLKISRVEAEDLGVYYCFQGSHVPLTFGAGTRLELK | binds
L3D5-C (antibody, V domains shown, Mouse VH and VL fused to human IgG1 heavy and kappa light constant regions; also called chimeric version of L3D5) VH: GVQLQQSGPELVKPGASVKISCKASGYTFTDFYMNWVKQSHGKSLEWIGDINPNNGVTTYNQKFKDKATLTVDKSSSTAYMELRSLTSEDSAVYYCATGAIHYGYDGYFDVWGAGTTVTVSS VL: DIVMTQSPATLSVTPGDRVSLSCRASQSISDYLHWYQQKSHESPRLLIKYASQSISGIPSRFSGSGSGSDFTLSINSVEPEDVGVYYCQNGHSFPLTFGAGTKLELK | binds
L1H7-C (antibody, V domains shown, Mouse VH and VL fused to human IgG1 heavy and kappa light constant regions; also called chimeric version of L1H7) VH: QVQLQQSGPELVKPGASVKISCKASGYAFSSSWMNWVKQRPGKGLEWIGRIYPGNGNTNYNGKFKGKATLTADKSSSTAYMQLNSLTSEDSAVYFCASRFAYWGQGTLVAVSA VL: DIVLTQSPASLAVSLGQRATISCRASKSVSTSGYSYMHWYQQKPGQPPKLLIYLASNLESGVPARFSGSGSGTDFTLNIHPVEEEDAATYYCQHSRELRTFGGGTKLEIK | binds
L3F10-C (antibody, V domains shown, Mouse VH and VL fused to the constant regions of human IgG1 heavy chain and kappa light chain; also called chimeric version of L3F10) VH: EVKLVESGGGLVNTGGSLKLSCAASGFTFSDYFMYWVRQTPDKRLEWVAYISNSGGNTYYPDTVKGRFTISRDNAKNTLYLQMSRLKSEDTAMYFCTRPRPYGGYYAGIYYAMDYWGQGTSVTVSS VL: DIQMTQTTSSLSASLGDRVTISCRASQDISNYLNWYQQKPDGTVKLLIYYTSRLHSGVPSRFSGSGSGTDYSLTISNLEPEDIATYYCQQYSKLPLTFGAGTKLELK | binds
L3E1-C (antibody, V domains shown, Mouse VH and VL fused to human IgG1 heavy and kappa light constant regions; also called chimeric version of L3E1) VH: QVQLQQFGAELVKPGAAVKMSCKASGYTFTSYWITWVKQRPGQGLDWIGDIYPGGGSTNYHEKFKSKATLTVDTSSSTAYMQLSSLTSEDSAVYYCARGLRDFDYWGQGTTITVSS VL: DIQMTQTASSLSASLGDRVTISCRASQHINNYLNWYQQKPDGTVKLLIYSTSRLHSGVPSRFSGSGSGTDFSLTISNLEPEDIATYYCQQYSKLPRTFGGGTKLEIK | binds
L1D8-CR11-C (antibody, V domains shown, Mouse VH and VL fused to human IgG1 heavy and kappa light constant regions; also called chimeric version of L1D8-CR11; LID8-CR11) VH: QVQLQQSGAELMKPGASLKLSCKATGYTFTGYWIEWVKQRPGHGLEWIGEILPGRSSTNYNERFKGKAIFTADTSSNTAYMQLSSLTTEDSAIYYCARGRRDFDYWGQGTTITVSS VL: SIVMTQTPKFLPVSAGDRVTMTCKASQSVGNNVAWYQQKPGQSPKVLIYDASNRYTGVPDRFTGSGSGTDFTFTISSVQVEDLAVYFCQQYYSSPPTFGAGTKLELK | binds

Other lines, results leading:

binding result | Binder
binds | L1D8-CR21-C (antibody, V domains shown, Mouse VH and VL fused to human IgG1 heavy and kappa light constant regions; also called chimeric version of L1D8-CR21; LID8-CR21) VH: QVQLQQSGAELMKPGASLKLSCKATGYTFTGSWIEWVKQRPGHGLEWIGEILPGRSSTNYNERFKGKAIFTADTSSNTAYMQLSSLTTEDSAIYYCARGRRDFDYWGQGTTITVSS VL: SIVMTQTPKFLPVSAGDRVTMTCKASQSVGNNVAWYQQKPGQSPKVLIYDASNRYTGVPDRFTGSGSGTDFTFTISSVQVEDLAVYFCQQYYSSPPTFGAGTKLELK
binds | L1C7-C (antibody, V domains shown, Mouse VH and VL fused to human IgG1 heavy and kappa light constant regions; also called chimeric version of L1C7) VH: EFQLQQSGPEVVKPGASVKISCKASGYSFTVYNMNWVKQSNGKSLDWIGVINPNYGTVTYNQKFKGKATLTVDQSSSTAYMQLNSLSSEDSAVYYCATTATWGQGTTLTVSS VL: not shown
binds | S2F4-C (antibody, V domains shown, Mouse VH and VL fused to human IgG1 heavy and kappa light constant regions; also called chimeric version of S2F4) VH: EVQLVESGGGLVKPGGSLKLSCAASGFTFSDYGMHWVRQAPEKGLEWIAYISFGSSTIYYADTVKGRFTISRDNAKNTLFLQMTSLRSEDTAMYYCARTHGYYRSWFAYWGQGTLVTVSA VL: DIVLTQSPASLAVSLGQRATISCRASQSVSTSSYSYMNWYQQKPGQPPKLLIKYASNLESGVPARFSGSGSGTDFTLNIHPVEEEDTATYYCQHSWEIPLTFGAGTKLELK
binds | L1F2-C (antibody, V domains shown, Mouse VH and VL fused to human IgG1 heavy and kappa light constant regions; also called chimeric version of L1F2) VH: QVHLQQSGAELVRPGTSVKVSCKASGYAFTNYVIEWVKQRPGQGLEWIGVINPGSGGTNYNENFKGKATLTADKSSSTAYMQLSSLTSEDSAVYFCARGTVELYAMDYWGQGTSVTVSS VL: DIQMTQTTSSLSASLGDRVTISCRASQDISYYLNWYQQKPDGTVKLLISYTSRLHSGVPSRFSGSGSGTDYSLTISNLEQEDIATYFCQQDIKHPYTFGGGTELEIK
binds | S3C7-C (antibody, V domains shown, Mouse VH and VL fused to human IgG1 heavy and kappa light constant regions; also called chimeric version of S3C7) VH: EVKLVESGGGLVNTGGSLKLSCAASGFNFSHYYMYWVRQTPEKRLEWVAYIGNSGGSTYNPDTVKGRFTISRDNAKNTLYLQMSRLKSEDTAIYYCARQNYYSGSFYFDSWGQGTTITVSS VL: NIVLTQSPTSMSMSVGERVTLSCKASENVGTYVSWYQQKPEQSPKLLIYGKSNRYTGVPDRFTGSGSAPDFTLTISSVQAEDLADYYCGQSYSFPFTFGTGTKLEIK
